# Results from patent publication US20080317767A1, “Tripartitle Raftophilic Strutures and their Use” (priority 2004, published 2008).
# Where a SMILES comes first, the peptide text is derived from it. [ ]: non-standard residue; d: D form. The star is where a group is joined. Piperazinyl(4-RhodamineB) = CCN(CC)c1ccc2c(-c3ccccc3C(=O)N3CCN(*)CC3)c3ccc(=[N+](CC)CC)cc-3oc2c1; X1 = CC(C)CCC[C@@H](C)[C@H]1CCC2C3CCC4C[C@@H](O*)CC[C@]4(C)C3CC[C@@]21C; Sta = CC(C)C[C@H](N)[C@@H](O)CC(=O)O; βAla = NCCC(=O)O
# Test: Qualitative solubility assessment in an aqueous medium
# Assay type: physicochemical
smiles,measurement,value
CCN(CC)c1ccc2c(-c3ccccc3C(=O)N3CCN(C(=O)CC[C@H](N)C(=O)NCCC(=O)NCC(=O)N[C@@H](CCC(=O)O)C(=O)N[C@H](C(=O)N[C@@H](CC(N)=O)C(=O)N[C@@H](CC(C)C)[C@@H](O)CC(=O)N[C@H](C(=O)N[C@@H](C)C(=O)N[C@@H](CCC(=O)O)C(=O)N[C@@H](Cc4ccccc4)C(=O)N[C@@H](CCCNC(=N)N)C(=O)N[C@@H](Cc4c[nH]cn4)C(=O)N[C@@H](CC(=O)O)C(=O)N[C@@H](CO)C(=O)NCC(=O)N[C@@H](Cc4ccc(O)cc4)C(=O)N[C@@H](CCC(=O)O)C(=O)N[C@H](C(=O)N[C@@H](Cc4c[nH]cn4)C(=O)N[C@@H](Cc4c[nH]cn4)C(=O)N[C@@H](CCC(N)=O)C(=O)N[C@@H](CCCCN)C(=O)N[C@@H](CC(C)C)C(=O)N[C@H](C(=O)N[C@@H](Cc4ccccc4)C(=O)N[C@@H](Cc4ccccc4)C(=O)N[C@@H](C)C(=O)N[C@@H](CCC(=O)O)C(=O)N[C@@H](CC(=O)O)C(=O)N[C@H](C(=O)NCC(=O)N[C@@H](CO)C(=O)N[C@@H](CC(N)=O)C(=O)N[C@@H](CCCCN)C(=O)N[C@@H](CC(=O)O[C@H]4CC[C@@]5(C)C(CCC6C5CC[C@@]5(C)C6CC[C@@H]5[C@H](C)CCCC(C)C)C4)C(N)=O)C(C)C)C(C)C)C(C)C)C(C)C)C(C)C)CC3)c3ccc(=[N+](CC)CC)cc-3oc2c1 (stereo partly shown) [compound 24b] (H-E(Piperazinyl(4-RhodamineB))[βAla]GEVN[Sta]VAEFRHDSGYEVHHQKLVFFAEDVGSNKD(X1)-NH2),solubility in an aqueous medium (qualitative comparison of 24b and 25b),higher solubility
